The values below come from patent publication US20040072185A1 (published 2004).

The data set concerns the molecule itself. The experiment in a line: Western blotting of the microsomal fraction of transfected cells; self-association. The method, then:
The truncated SERCA1 protein could be detected in the microsomal fraction of transiently transfected cells, by western blotting. […] Immunohistochemical analyses of the transfected cells were carried out with the anti-SERCA1-T antibody and made it possible to detect a reticular location in the cells transfected with S1T+4.
For orientation: Immunoblotting shows a protein as a band on a membrane.

B1: S1T+4 truncated SERCA1 protein (other)
chain: MEAAHAKTTEECLAYFGVSETTGLTPDQVKRNLEKYGLNELPAEEGKTLWELVIEQFEDLLVRILLLAACISFVLAWFEEGEETITAFVEPFVILLILIANAIVGVWQERNAENAIEALKEYEPEMGKVYRADRKSVQRIKARDIVPGDIVEVAVGDKVPADIRILAIKSTTLRVDQSILTGESVSVIKHTEPVPDPRAVNQDKKNMLFSGTNIAAGKALGIVATTGVGTEIGKIRDQMAATEQDKTPLQQKLDEFGEQLSKVISLICVAVWLINIGHFNDPVHGGSWFRGAIYYFKIAVALAVAAIPEGLPAVITTCLALGTRRMAKKNAIVRSLPSVETLGCTSVICSDKTGTLTTNQMSVCKMFIIDKVDGDICLLNEFSITGSTYAPEGEVPKVSMRRSARPPRQHSPPWWRR
notes: Splice variant of SERCA1 lacking exon 11, expected size 46 kDa; Expressed in transfected cells or endogenous in cell lines; also called SERCA1-T
On to B1, for which the binding result was “binds”.
